Molecular target: the molecule itself
Test: SEC; purified recombinant His-tagged ASK13; Superose 6 column by the legend; fractions confirmed by dot blot with an anti-His antibody

B1: Recombinant His-tagged ASK13 (natural protein, Arabidopsis thaliana, UniProt Q9M1X5 1-154, looked up)
chain: MSKMVMLLSSDGESFQVEEAVAVQSQTIAHMIEDDCVANGVPIANVTGVILSKVIEYCKKHVVSDSPTEESKDELKKWDAEFMKALEQSSTLFDVMLAANYLNIKDLLDLGCQTVADMITGKKPDEIRALLGIENDFTPEEEEEIRKENQWAFE
notes: ASK13 (SKP1-like protein13), Arabidopsis thaliana, At3g60010; sub-cloned into pET23d; Found as monomer and dimer; also called recombinant ASK13; his-tagged ASK13 protein; not shown: His tag, C-terminal, kept
With B1 the “stoichiometry N” value was 2.

Source: paper PMC6054272, “Arabidopsis SKP1-like protein13 (ASK13) positively regulates seed germination and seedling growth under abiotic stress” (Journal of Experimental Botany, 2018)
